# Earlier results, collected in article PMC4319847 (PLoS ONE, 2015).
# Test system: Yeast importin-α
# Details: in the crystal (1BK6) and in solution by DLS; ref [13]
# Excerpt: The open homodimerization probably attributes to H119 at the top of the loop; this loop corresponds to the K ...
molecule,measurement,value
"Yeast importin-α: Yeast importin-α (1BK6), first crystal structure of an importin-α shown to dimerize (protein, UniProt Q02821 1-542, looked up) Importin subunit alpha: MDNGTDSSTSKFVPEYRRTNFKNKGRFSADELRRRRDTQQVELRKAKRDEALAKRRNFIPPTDGADSDEEDESSVSADQQFYSQLQQELPQMTQQLNSDDMQEQLSATVKFRQILSREHRPPIDVVIQAGVVPRLVEFMRENQPEMLQLEAAWALTNIASGTSAQTKVVVDADAVPLFIQLLYTGSVEVKEQAIWALGNVAGDSTDYRDYVLQCNAMEPILGLFNSNKPSLIRTATWTLSNLCRGKKPQPDWSVVSQALPTLAKLIYSMDTETLVDACWAISYLSDGPQEAIQAVIDVRIPKRLVELLSHESTLVQTPALRAVGNIVTGNDLQTQVVINAGVLPALRLLLSSPKENIKKEACWTISNITAGNTEQIQAVIDANLIPPLVKLLEVAEYKTKKEACWAISNASSGGLQRPDIIRYLVSQGCIKPLCDLLEIADNRIIEVTLDALENILKMGEADKEARGLNINENADFIEKAGGMEKIFNCQQNENDKIYEKAYKIIETYFGEEEDAVDETMAPQNAGNTFGFGSNVNQQFNFN",dimerization,dimerize not only in the crystal but also in solution
